Data taken from PMC3172050, “Structural and functional properties of NH2-terminal domain, core domain, and COOH-terminal extension of αA- and αB-crystallins” (Molecular Vision, 2011).

Experiments:
[1] = target: the molecule itself; assay: SEC-MALS; multiangle laser light scattering instrument (Wyatt) coupled to an HPLC system, called dynamic light scattering (MALS) by the paper; samples in 50 mM sodium phosphate pH 7.8, filtered through 0.22 um; 18 angles; absolute molar mass of each protein alone
[2] = target: the molecule itself; assay: SDS-PAGE with western blot (anti-His tag antibody); purified His-tagged WT αB on an SDS-PAGE gel; 50 kDa band beside the monomer, both immunoreactive with the anti-His antibody

Protein | binding result [1] | stoichiometry N [2]
αB-crystallin NH2-terminal domain (residues 1-66) (domain or fragment, human, UniProt P02511 1-66, looked up, human αB-crystallin, NH2-terminal domain, residues 1-66; The pET 100D TOPO vector may add further N-terminal residues besides the His-tag; also called αB NTD; not shown: His6, N-terminal, kept) MDIAIHHPWIRRPFFPFHSPSRLFDQFFGEHLLESDLFPTSTSLSPFYLRPPSFLRAPSWFDTGLS | binds | –
αB-crystallin core domain (residues 67-146) (domain or fragment, human, UniProt P02511 67-146, looked up, human αB-crystallin, core domain, residues 67-146; The pET 100D TOPO vector may add further N-terminal residues besides the His-tag; also called αB CD; not shown: His6, N-terminal, kept) EMRLEKDRFSVNLDVKHFSPEELKVKVLGDVIEVHGKHEERQDEHGFISREFHRKYRIPADVDPLTITSSLSSDGVLTVN | binds | –
wild type αB-crystallin (natural protein, human, UniProt P02511 1-175, looked up, human αB-crystallin, wild type; Subcloned into pET 100D TOPO; the vector may add further N-terminal residues besides the His-tag; also called WT αB; not shown: His6, N-terminal, kept) MDIAIHHPWIRRPFFPFHSPSRLFDQFFGEHLLESDLFPTSTSLSPFYLRPPSFLRAPSWFDTGLSEMRLEKDRFSVNLDVKHFSPEELKVKVLGDVIEVHGKHEERQDEHGFISREFHRKYRIPADVDPLTITSSLSSDGVLTVNGPRKQVSGPERTIPITREEKPAVTAAPKK | – | 2
